Measured values: publication doi:10.1101/2025.08.28.672883 (bioRxiv, 2025)

Columns and labels:
Details in all cases: both partners purified
[1] = biological target: SARS-CoV-2 Omicron BA.1 spike receptor-binding domain (SARS-CoV-2 Omicron BA.1, S371L | S373P | S375F | Q493R | Q498R | N501Y | Y505H); assay: BLI; Octet Red; […] (20 ug/ml) […]; kinetics buffer 1x PBS pH 7.4, 0.01% BSA, 0.002% Tween 20; 1:1 binding model
[2] = biological target: SARS-CoV-2 Omicron JN.1 spike receptor-binding domain (SARS-CoV-2 Omicron JN.1, strain); assay: as above
[3] = biological target: SARS-CoV-2 Omicron BQ.1.1 spike receptor-binding domain (SARS-CoV-2 Omicron BQ.1.1, strain); assay: as above
[4] = biological target: SARS-CoV-2 Omicron XBB.1.5 spike receptor-binding domain (SARS-CoV-2 Omicron XBB.1.5, strain); assay: as above
[5] = biological target: SARS-CoV-2 Omicron BA.5 spike receptor-binding domain (SARS-CoV-2 Omicron BA.5, S375F | D405N | N501Y | Y505H); assay: crystal structure

Measured: binding result

B1: ADI-77310 Fab (Fab, V domains shown)
VH: EVQLVESGGGLVKPGGSLRLSCAASGFTFGSYYMNWVRQAPGKGLEWVSSISEDGYSTYYPDSLKGRFTISRDSAKNSLYLQMNSLRADDTAVYYCARDFGGHTAWAGTGFTYWGQGTLVTVSS
VL: QSVLTQPPSVSGAPGQRITISCTGSSSNIGAGYDVHWYQQLPGTAPKLLIYGSSSRNSGVPDRFSGSKSGTSASLAITGLQAEDEADYYCQSYDSDLSVLYTFGTGTKVTVL
binds: [1]

B2: VYD222 Fab (Fab, V domains shown)
VH: EVQLVESGGGLVKPGGSLRLSCAASGFTFGSYEMNWVRQAPGKGLEWVSSISEDGYSTYYPDSLKGRFTISRDSAKNSLYLQMNSLRADDTAVYYCARDFGGDTAWAGTGFTYWGQGTLVTVSS
VL: QSVLTQPPSVSGAPGQRITISCTGSSSNIGAGYDVHWYQQLPGTAPKLLIYGSSSRNYGVPDRFSGSKSGTSASLAITGLQAEDEADYYCQSYDSDLGVLYTFGTGTKVTVL
binds: all assays above
